Assays:
[1] = test system: NorMMPL (norbornene monomer functionalized with the L-MMP peptide)
[2] = test system: NorMMPD (norbornene monomer functionalized with the D-MMP peptide)
[3] = test system: NorMMPR (norbornene monomer functionalized with the random peptide R-MMP)

Sequence of MMP-9 (chain, as listed by the source): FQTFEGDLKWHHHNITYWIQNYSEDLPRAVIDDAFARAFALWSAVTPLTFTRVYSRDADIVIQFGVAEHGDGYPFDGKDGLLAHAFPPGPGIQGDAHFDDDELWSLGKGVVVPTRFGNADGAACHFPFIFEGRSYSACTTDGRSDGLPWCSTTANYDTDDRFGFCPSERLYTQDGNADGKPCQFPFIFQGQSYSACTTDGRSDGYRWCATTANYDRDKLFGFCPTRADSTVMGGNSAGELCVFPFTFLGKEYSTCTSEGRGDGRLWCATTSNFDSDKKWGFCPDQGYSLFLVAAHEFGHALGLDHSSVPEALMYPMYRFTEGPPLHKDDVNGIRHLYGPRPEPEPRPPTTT

Q: Which “MMP-9 cleavage assay (HPLC after 24 hours of incubation with MMP-9 at 37° C.; 0.5 µM MMP-9 : 500 µM NorMMP)” value (shortened to “MMP-9 cleavage assay”) [1] does the source give for MMP-9 here?
A: NorMMPL was completely cleaved

Q: And the “MMP-9 cleavage assay” value [2]?
A: remained intact

Q: And the “MMP-9 cleavage assay” value [3]?
A: remained intact
